Data set [1] deals with T1, SynIM30 WT (Synechocystis sp. PCC 6803, UniProt Q55707).
T1 construct: gene vipp1; full length, N-terminal His-tag kept (pRSET IM30 WT), E. coli BL21(DE3), Ni-NTA; high molecular mass homo-oligomeric rings
T1 sequence (Q55707 1-267): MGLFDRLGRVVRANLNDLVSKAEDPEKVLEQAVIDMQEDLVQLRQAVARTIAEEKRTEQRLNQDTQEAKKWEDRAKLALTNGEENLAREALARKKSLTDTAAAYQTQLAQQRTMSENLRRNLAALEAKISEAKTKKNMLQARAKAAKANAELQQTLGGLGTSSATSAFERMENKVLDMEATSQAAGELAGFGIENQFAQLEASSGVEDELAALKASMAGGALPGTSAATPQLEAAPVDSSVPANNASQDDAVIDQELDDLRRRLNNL
Briefly: malachite green Pi release. Format: biochemical. The following applies: 0.5 mM GMP-PCP, GTP varied, 2.5 mM Mg2+, 37 °C; competitive or allosteric not resolved. The text has this: malachite green Pi release on SynIM30 WT | […]

In data set [2] the target is T1, SynIM30 WT. Briefly: thermal denaturation, CD at […] nm. The following applies: 0.5 mM GTP with or without 2.5 mM Mg2+; 3.2 µM protein. In kind it is binding.
Data set [3] deals with the molecule itself. Kind of data set: SEC; Superose 12 10/300 GL column, 20 mM HEPES pH 7.6, 8 °C, elution followed at 280 nm; calibrated against standards of known size. A general note: In gel filtration, larger molecules generally elute earlier.
Substrate in data set [4]: Nc1nc2c(ncn2[C@@H]2O[C@H](COP(=O)(O)OP(=O)(O)OP(=O)(O)O)[C@@H](O)[C@H]2O)c(=O)[nH]1
Briefly: malachite green Pi release, Hill fit. In kind it is biochemical, Synechocystis sp. PCC 6803. To be noted: 2.5 mM Mg2+, 20 mM HEPES, 37 °C, 30 min, Hill coefficient 1.29 ± 0.09.

Consider `Nc1nc2c(ncn2[C@@H]2O[C@H](COP(=O)(O)OP(=O)(O)CP(=O)(O)O)[C@@H](O)[C@H]2O)c(=O)[nH]1` [GMP-PCP], for which the “malachite green Pi release” value at SynIM30 WT [1] is given as “Addition of the non-hydrolyzable GTP analog GMP-PCP”.
In the case of `Nc1nc2c(ncn2[C@@H]2O[C@H](COP(=O)(O)OP(=O)(O)OP(=O)(O)O)[C@@H](O)[C@H]2O)c(=O)[nH]1` [GTP], on SynIM30 WT [2], the Tm result was “This suggests that GTP binding affects the structure and stability of IM30 to some extent”.

B1: Synechocystis IM30 wild type (inner membrane-associated protein of 30 kDa) (natural protein, Synechocystis sp. PCC 6803, UniProt Q55707 1-267, looked up)
chain: MGLFDRLGRVVRANLNDLVSKAEDPEKVLEQAVIDMQEDLVQLRQAVARTIAEEKRTEQRLNQDTQEAKKWEDRAKLALTNGEENLAREALARKKSLTDTAAAYQTQLAQQRTMSENLRRNLAALEAKISEAKTKKNMLQARAKAAKANAELQQTLGGLGTSSATSAFERMENKVLDMEATSQAAGELAGFGIENQFAQLEASSGVEDELAALKASMAGGALPGTSAATPQLEAAPVDSSVPANNASQDDAVIDQELDDLRRRLNNL
notes: IM30 (Vipp1) of the cyanobacterium Synechocystis sp; PCC 6803; Forms high molecular mass homo-oligomers (>300 kDa by SEC); the number of chains in them is not determined here; also called SynIM30; SynIM30 WT; source: E. coli BL21 (DE3), purified (Ni-NTA, Sephadex G25 buffer exchange)
In general, Km refers to the substrate concentration at which the rate is half of its maximum. By kcat is commonly meant the number of substrate molecules converted per active site and unit of time at saturation. For B1, the binding result in data set [3] was “binds”. In data set [4], the Km came out at 650 ± 140 µM and the kcat worked out at 0.036 ± 0.0055 s⁻¹.

B2: SynIM30 FERM_EE (E83A, E84A, F168A, E169A, R170A, M171A) (natural protein, Synechocystis sp. PCC 6803, UniProt Q55707 1-267, looked up)
chain: MGLFDRLGRVVRANLNDLVSKAEDPEKVLEQAVIDMQEDLVQLRQAVARTIAEEKRTEQRLNQDTQEAKKWEDRAKLALTNGAANLAREALARKKSLTDTAAAYQTQLAQQRTMSENLRRNLAALEAKISEAKTKKNMLQARAKAAKANAELQQTLGGLGTSSATSAAAAAENKVLDMEATSQAAGELAGFGIENQFAQLEASSGVEDELAALKASMAGGALPGTSAATPQLEAAPVDSSVPANNASQDDAVIDQELDDLRRRLNNL
notes: IM30 (Vipp1) of Synechocystis sp; PCC 6803 with six mutations brought into the plasmid of IM30 WT; mainly tetramers in buffers of low ionic strength; also called tetrameric SynIM30 variant; source: E. coli BL21 (DE3), purified (Ni-NTA, Sephadex G25 buffer exchange)
One may read the stoichiometry N as a count of units in the complex or per binding partner. For B2, the “stoichiometry N” value in data set [3] was 4.

These data come from publication PMC7299955, “GTP hydrolysis by Synechocystis IM30 does not decisively affect its membrane remodeling activity” (Scientific Reports, 2020).
